Results as given in the Immune Epitope Database (IEDB).

Experiments:
Experiment in all cases: IEDB peptide-MHC binding, purified MHC/competitive/radioactivity; filed as Kd, often an IC50 or EC50 that approximates it; ≥ and ≤ were set here for values at or beyond the usual limits of such assays
HLA-A*02:03 = target: HLA-A*02:03
HLA-A*33:01 = target: HLA-A*33:01
HLA-A*31:01 = target: HLA-A*31:01
HLA-A*03:01 = target: HLA-A*03:01
HLA-A*68:01 = target: HLA-A*68:01
HLA-A*11:01 = target: HLA-A*11:01
[1] = source organism: Dengue virus 4 Philippines/H241/1956
[2] = source organism: Dengue virus 2 Jamaica/1409/1983
[3] = source organism: Vaccinia virus WR
[4] = source organism: Dengue virus 1 Brazil/97-11/1997
[5] = source organism: SARS coronavirus Tor2
[6] = source organism: Mammarenavirus juninense
[7] = source organism: Mammarenavirus lassaense

Sequence | Kd (HLA-A*33:01; [3]) [nM] | Kd (HLA-A*31:01; [3]) [nM] | Kd (HLA-A*03:01; [3]) [nM] | Kd (HLA-A*68:01; [3]) [nM] | Kd (HLA-A*11:01; [3]) [nM] | also measured
FMTATPPGAT |  |  |  |  |  | Kd (HLA-A*02:03; [1]): 29.4 nM
GLKSKTHAV |  |  |  |  |  | Kd (HLA-A*02:03; source organism: Homo sapiens): 1.58 nM
GMCCIITASI |  |  |  |  |  | Kd (HLA-A*02:03; [2]): 84.1 nM
PLNEAIMAV |  |  |  |  |  | Kd (HLA-A*02:03; [2]): 18.3 nM
RARFIGGYIK | 11700 | 59.4 | 629 | 92.9 | 16.8 | 
RIVTVTTKDY | ≥ 70000 | 18300 | 427 | 1550 | 600 | 
RLAANAICSA |  |  |  |  |  | Kd (HLA-A*02:03; [2]): 127 nM
RSTIFDIVSK | 6500 | 222 | 81.3 | 79.2 | 1.97 | 
RTFNEDLFR | 1570 | 17.6 | 73.5 | 22.3 | 15.1 | 
RTRLYDYFTR | 1630 | 0.7 | 6060 | 1450 | 991 | 
SADNHPKMIK | 144 | 33.7 | 16.7 | 15.1 | 2.04 | 
SILARRPTPK | 12300 | 372 | 1.08 | 147 | 1.44 | 
SLFPLCLSTT |  |  |  |  |  | Kd (HLA-A*02:03; [4]): 0.3 nM
SLIKFISDNK | ≥ 70000 | 2650 | 14.9 | 69.1 | 23.7 | 
SMVSAGSGEV |  |  |  |  |  | Kd (HLA-A*02:03; [4]): 144 nM
SSIDVDKRTK | 8970 | 752 | 493 | 19.1 | 0.841 | 
SSYSLFDMSK |  |  |  |  |  | Kd (HLA-A*33:01; [5]): 10100 nM; Kd (HLA-A*31:01; [5]): 253 nM; Kd (HLA-A*03:01; [5]): 18 nM; Kd (HLA-A*68:01; [5]): 42.2 nM; Kd (HLA-A*11:01; [5]): 3.25 nM
SWPLQCPLDH |  |  |  |  |  | Kd (HLA-A*33:01; [6]): ≥ 38500 nM; Kd (HLA-A*31:01; [6]): ≥ 22800 nM; Kd (HLA-A*03:01; [6]): ≥ 70000 nM; Kd (HLA-A*68:01; [6]): ≥ 70100 nM; Kd (HLA-A*11:01; [6]): ≥ 69700 nM

Sequence | Kd (HLA-A*33:01; [3]) [nM] | Kd (HLA-A*31:01; [3]) [nM] | Kd (HLA-A*03:01; [3]) [nM] | Kd (HLA-A*68:01; [3]) [nM] | Kd (HLA-A*11:01; [3]) [nM] | also measured
TFKIDAVRY | ≥ 77700 | ≥ 34900 | ≥ 78000 | 1900 | 18900 | 
TIKYSNDNRY | ≥ 70000 | ≥ 29900 | ≥ 20600 | 956 | 8860 | 
TLILSNKLLY | 18700 | 18000 | 1290 | 4330 | 1010 | 
TLMSIISTFH |  |  |  |  |  | Kd (HLA-A*33:01; [7]): 15900 nM; Kd (HLA-A*31:01; [7]): 8710 nM; Kd (HLA-A*03:01; [7]): 6370 nM; Kd (HLA-A*68:01; [7]): 2920 nM; Kd (HLA-A*11:01; [7]): ≥ 34600 nM
TMADLVYALR |  |  |  |  |  | Kd (HLA-A*33:01; [5]): 136 nM; Kd (HLA-A*31:01; [5]): 81.3 nM; Kd (HLA-A*03:01; [5]): 2250 nM; Kd (HLA-A*68:01; [5]): 9.4 nM; Kd (HLA-A*11:01; [5]): 898 nM
TSKTTILSK | ≥ 37700 | 2020 | 4520 | 1110 | 403 | 
TTEMLSRALK |  |  |  |  |  | Kd (HLA-A*33:01; [5]): 3910 nM; Kd (HLA-A*31:01; [5]): 120 nM; Kd (HLA-A*03:01; [5]): 101 nM; Kd (HLA-A*68:01; [5]): 12.8 nM; Kd (HLA-A*11:01; [5]): 67.2 nM
TVSALVYDNK |  |  |  |  |  | Kd (HLA-A*33:01; [5]): 9750 nM; Kd (HLA-A*31:01; [5]): 4890 nM; Kd (HLA-A*03:01; [5]): 488 nM; Kd (HLA-A*68:01; [5]): 5.88 nM; Kd (HLA-A*11:01; [5]): 20.6 nM
VMNIERQDYR | 65.1 | 46.7 | 11400 | 153 | 4140 | 
VQMLSDTLK |  |  |  |  |  | Kd (HLA-A*33:01; [5]): ≥ 77700 nM; Kd (HLA-A*31:01; [5]): 413 nM; Kd (HLA-A*03:01; [5]): 74.3 nM; Kd (HLA-A*68:01; [5]): 2480 nM; Kd (HLA-A*11:01; [5]): 18.7 nM
VSAQNISFK | ≥ 33900 | 1570 | 14.6 | 70.6 | 9.62 | 
VSDFRDYQSY | ≥ 70000 | ≥ 70000 | ≥ 32200 | ≥ 51200 | 4640 | 
VTDLENRLKK | ≥ 70000 | ≥ 37700 | 291 | ≥ 31700 | 14.5 | 
YFSFKKCLVY | 9060 | 2780 | 33 | 578 | 107 | 
YIRRNMINK | ≥ 21300 | 2370 | 10.6 | 168 | 568 | 
YLKNYKNFDY | ≥ 70000 | 1540 | 4070 | 7290 | 2490 | 
YLSSRAKLAL |  |  |  |  |  | Kd (HLA-A*02:03; [1]): 28.1 nM
YTCEDNTGIK | ≥ 70000 | ≥ 70000 | ≥ 29700 | 256 | 1060 | 
